These results are taken from patent publication US20230357415A1 (AJOU UNIVERSITY INDUSTRY ACADEMIC COOPERATION FOUNDATION, published 2023).

Positions count from the first letter of the chain named. Where two headings read alike, the source gives them in different places.

Test [1] has as its target T1, purified sIL-5Rα (Asp1-Asn313 of SEQ ID NO: 66) (Homo sapiens (Human), UniProt Q01344 21-333).
T1 construct: also called the purified sIL-5Rα
T1 sequence: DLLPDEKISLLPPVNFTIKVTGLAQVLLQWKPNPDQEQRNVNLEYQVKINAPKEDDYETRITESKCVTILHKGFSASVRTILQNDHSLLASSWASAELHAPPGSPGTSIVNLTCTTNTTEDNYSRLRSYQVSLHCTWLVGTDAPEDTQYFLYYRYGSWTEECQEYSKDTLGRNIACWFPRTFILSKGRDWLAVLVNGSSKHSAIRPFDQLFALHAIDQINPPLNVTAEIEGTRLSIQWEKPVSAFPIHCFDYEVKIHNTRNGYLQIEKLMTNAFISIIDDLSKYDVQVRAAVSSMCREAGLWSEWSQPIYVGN
As to the kind of experiment: BLI (Octet QKe), antibody on AHC sensor, purified sIL-5Rα in solution, 1:1 model. The protocol:
Specifically, lx kinetic buffer was prepared by diluting 10× kinetic buffer (ForteBio, 18-1105) in PBS. […] Affinity was calculated with Octet Data Analysis software 11.0 in a 1:1 binding model.
Background: BLI is a label-free optical method that tracks binding on a fibre tip over time.

In test [2] the target is T2, insulin (Homo sapiens (Human), UniProt P01308 25-54; P01308 90-110, Mature two-chain hormone: A and B chains joined by two interchain disulfides, plus one intrachain disulfide in the A chain; the letters do not carry these.).
T2 construct: Irrelevant antigen of the multi-antigen specificity ELISA; also called insulin (125 ng/well, 19278; Sigma)
T2 sequence (P01308 25-54 limits assumed, chain 1 of 2): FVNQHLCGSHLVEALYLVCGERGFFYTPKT
T2 sequence (P01308 90-110 limits assumed, chain 2 of 2): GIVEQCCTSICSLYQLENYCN
In words: indirect ELISA; plate-coated insulin, antibody 100 nM, anti-human Fc-HRP, absorbance at 450 nm. The protocol: (§1) The binding specificity of anti-IL-5Rα humanized antibodies was determined using indirect ELISA. A multi-antigen ELISA was performed using four structurally different antigenic double-stranded DNA (dsDNA), insulin, the macromolecule hemocyanin, and the membrane component, cardiolipin. Specifically, sIL-4Rα antigen protein (50 ng/well, Sinobio; 10402-H08H), sIL-5Rα antigen protein (50 ng/well, Sinobio; 10392-H08H), dsDNA (25 ng/well, D4522; Sigma), insulin (125 ng/well, 19278; Sigma), hemocyanin (125 ng/well, H8283; Sigma), and cardiolipin (1250 ng/well, C0563; Sigma) proteins were immobilized on a 96-well plate at room temperature for 1 hour, and blocked using 2% skim milk containing 0.1% PBST (0.1% Tween20, pH 7.4, 137 mM NaCl, 10 mM phosphate, 2.7 mM KCl) at room temperature for 1 hour. After discarding the solution and then washing the same three times with 0.1% PBST, the antibody was diluted to 100 nM, added to the blocked plate in an amount of […], and allowed to react at room temperature for 1 hour. […] After discarding the solution and washing three times with PBST, a TMB solution was added in an amount of […], color development was induced at room temperature for 2 minutes, the reaction was stopped using H₂SO₄ (2N), and the absorbance at 450 nm was measured with an ELISA reader.
In general terms: ELISA stands for enzyme-linked immunosorbent assay.

For test [3], the target named is T3, sIL-4Rα (soluble IL-4Rα) antigen protein (human, UniProt P24394 26-232).
T3 construct: The ELISA and Octet assays used the bought protein (Sinobio 10402-H08H); also called CD124; sinobio 10402-H08H
As to the kind of experiment: indirect ELISA; plate-coated sIL-4Rα, antibody 100 nM, anti-human Fc-HRP, absorbance at 450 nm. On the procedure: as §1

Test [4] deals with T3, sIL-4Rα (soluble IL-4Rα) antigen protein. As to the kind of experiment: BLI (Octet QKe), antibody on AHC sensor, sIL-4Rα in solution, 1:1 model. The protocol:
Antigen affinity of antibodies was analyzed through variation in the refractive index occurring when the antibody bound to the antigen was detached therefrom while the AHC (anti-human IgG Fc capture) sensor chip moved in the order of kinetic buffer, antibody dilution solution, kinetic buffer, antigen dilution solution, and kinetic buffer. Affinity was calculated with Octet Data Analysis software 11.0 in a 1:1 binding model.

Test [5] addresses T2, insulin. As to the kind of experiment: indirect ELISA; plate-coated insulin, antibody 100 nM, anti-human Fc-HRP, absorbance at 450 nm. The protocol:
(§2) The binding specificity of the antibody was determined using indirect ELISA. A multi-antigen ELISA was performed using four structurally different antigenic double-stranded DNA (dsDNA), insulin, the macromolecule hemocyanin, and the membrane component, cardiolipin. Specifically, sIL-4Rα antigen protein (50 ng/well, sinobio; 10402-H08H), sIL-5Rα antigen protein (50 ng/well, sinobio; 10392-H08H), dsDNA (25 ng/well, D4522; Sigma), insulin (125 ng/well, 19278; Sigma), hemocyanin (125 ng/well, H8283; Sigma), and cardiolipin (1250 ng/well, C0563; Sigma) proteins were immobilized on a 96-well plate at room temperature for 1 hour, and blocked using 2% skim milk containing 0.1% PBST (0.1% Tween20, pH 7.4, 137 mM NaCl, 10 mM phosphate, 2.7 mM KCl) at room temperature for 1 hour. After discarding the solution and then washing the same three times with 0.1% PBST, the antibody was diluted to 100 nM, added to the blocked plate in an amount of 25 μl/well, and allowed to react at room temperature for 1 hour. After discarding the solution and washing the same three times with 0.1% PBST, an anti-human Fc-HRP antibody (1:8000) as a secondary antibody was added in an amount of 25 μl/well and reacted at room temperature for 1 hour. After discarding the solution and washing three times with PBST, a TMB solution was added in an amount of 25 μl/well, color development was induced at room temperature for 2 minutes, the reaction was stopped using H₂SO₄ (2N), and the absorbance at 450 nm was measured with an ELISA reader.
The source holds these as a separate data set.

The target in test [6] is T4, sIL-5Rα antigen protein (Sinobio 10392-H08H) (Homo sapiens (Human), UniProt Q01344 21-342).
T4 construct: Bought protein immobilised in the indirect ELISAs; also called soluble IL-5Rα; CD125
T4 sequence: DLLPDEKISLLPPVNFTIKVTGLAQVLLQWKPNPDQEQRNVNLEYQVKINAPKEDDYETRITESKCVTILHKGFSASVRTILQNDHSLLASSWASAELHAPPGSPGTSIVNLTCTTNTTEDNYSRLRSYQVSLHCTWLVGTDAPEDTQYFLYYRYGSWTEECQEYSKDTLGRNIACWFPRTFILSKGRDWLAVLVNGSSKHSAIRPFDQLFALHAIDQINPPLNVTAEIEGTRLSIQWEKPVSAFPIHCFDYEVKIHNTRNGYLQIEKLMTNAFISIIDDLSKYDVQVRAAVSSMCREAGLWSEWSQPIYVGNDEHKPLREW
In words: indirect ELISA; plate-coated sIL-5Rα, antibody 100 nM, anti-human Fc-HRP, absorbance at 450 nm. The protocol: as §2

For test [7], the target named is T4, sIL-5Rα antigen protein (Sinobio …). As to the kind of experiment: indirect ELISA; plate-coated sIL-5Rα, antibody 100, 10, 1 nM, anti-human Fc-HRP, absorbance at 450 nm. The protocol: After discarding the solution and washing the same three times with 0.1% PBST, an anti-human Fc-HRP antibody (1:8000) as a secondary antibody was added in an amount of 25 μl/well and reacted at room temperature for 1 hour.

B1: 5R65.39 (antibody, IgG1, V domains shown)
VH: QVQLVQSGAEVKKPGSSVKVSCKASGYTFTSYWINWVRQAPGQGLEWIGHIYPNKNENYYNHKFKDKATLTVDKSTNTAYMELSSLRSEDTAVYYCTREFYGRSRYSAMDYWGQGTTLTVSS
VL: DIQMTQSPSTLSASVGDRVTITCKASQNVGTAVAWYQQKPGKAPKLLIYWASTRHTGVPDRFSGSGSGTDFTLTISSLQPDDFATYYCQQFGRYPYTFGSGTKVEVK
notes: IgG1
The Kd is a measure of binding affinity in units of concentration. A high value points to a looser complex. Usually koff stands for the first-order rate constant of dissociation. What is called kon is the rate constant with which the complex forms. A higher kon goes with fast association. In test [1], B1 registered a Kd of 6.13 nM, an off-rate constant (koff) of 0.000171 s⁻¹ and an association rate constant (kon) of 28000 M⁻¹ s⁻¹. Further, the binding result in the test with insulin [2] is reported as “no binding (tested: 100 nM)”. Moreover, in test [3], the binding result was “no binding (tested: 100 nM)”.

B2: 5R65.45 (antibody, IgG1, V domains shown)
VH: B1 VH with F100Y, R105Y, S107N
VL: B1 VL
notes: IgG1
Consider B2, for which, in test [1], binding was put at a Kd of 7.26 nM, the koff stood at 0.000181 s⁻¹ and the association rate constant (kon) was determined as 24900 M⁻¹ s⁻¹. In the test with insulin [2], the binding result is given as “no binding (tested: 100 nM)”. In test [3], the binding result is recorded as “no binding (tested: 100 nM)”.

B3: 4R.N7 (antibody, V domains shown)
VH: EVQLLESGGGLVQPGGSLRLSCAASGFTFSRHAMAWVRQAPGKGLEWVSAITASGRSIYYADSVKGRFTISRDNSKNTLYLQMNSLRAEDTAVYYCARVHRAFDYWGQGTLVTVSS
VL: QSVLTQPPSASGTPGQRVTISCSGSPLFPDSGSFNWYQQLPGTAPKLLIYADSHRPSGVPDRFSGSKSGTSASLAISGLRSEDEADYYCGTWDYSLSSYVLGGGTKLTVLG
notes: Converted from scFab to IgG1 and expressed in HEK293F
In the case of B3, in test [4], the affinity, expressed as Kd, was 0.0431 nM; the dissociation rate constant (koff) was determined as 6.07e-05 s⁻¹; the kon turned out to be 1.55e+06 M⁻¹ s⁻¹. Also, the binding result with insulin [5] is “no binding (tested: 100 nM)”. Also, in test [6], the binding result was “no binding (tested: 100 nM)”.

B4: 4R34.1.19-SL-5R65 (bispecific antibody, human IgG1, kappa)
light: QSVLTQPPSASGTPGQRVTISCSGSPLFPDSGSFNWYQQLPGTAPKLLIYADSHRPSGVPDRFSGSKSGTSASLAISGLRSEDEADYYCGTWDYSLSGYVLGGGTKLTVLGTVAAPDIQMTQSPSTLSASVGDRVTITCKASQNVGTAVAWYQQKPGKAPKLLIYWASTRHTGVPDRFSGSGSGTDFTLTISSLQPDDFATYYCQQFGRYPYTFGSGTKVEVKRTVAAPSVFIFPPSDEQLKSGTASVVCLLNNFYPREAKVQWKVDNALQSGNSQESVTEQDSKDSTYSLSSTLTLSKADYEKHKVYACEVTHQGLSSPVTKSFNRGEC
heavy: not shown
notes: The 4R34.1.19 variable regions are outermost and the 5R65 variable regions come second; also called 4R-SL-5R; DVD-IgG
As to B4, the binding result in test [7] was “binds”.
